Substitutions are numbered along the chain they refer to.
B1: P2D7 (antibody, V domains shown)
VH: QVQLQQWGAGLLKPSETLSLTCAVYGGSFSDYYWSWIRQPPGKGLEWIGEIDHSGSTNYNPSLKSRVTISVDTSRNQFSLSLSSVTAADTAVYYCARASPSSGWTLDYWGQGTLVTVSS
VL: QSVLTQPPSVSVSPGQTASITCSGDKLGDKFAFWYQQKPGQSPVLVIYLDNKRPSGIPERFSGSNSGNTATLTISGTQALDEADYYCYAWADTYEVFGGGTK
notes: claim 45 pairs 17 with 14); also called matured Ig P2D7
B2: IgG1 2H (antibody, V domains shown)
VH: B1 VH
VL: QSVLTQPPSVSVSPGQTASITCSGDKLGDKFAFWYQQKPGQSPVLVIYLDNKRPSGIPERFSGSNSGNTATLTISGTQALDEADYYCQAWDSNIEVFGGGTKLTVLG
notes: also called IgG 2H; IgG clone 2H
B3: P1E8 (antibody, V domains shown)
VH: B1 VH with R75K, S81K
VL: B2 VL with Q88E, S92A, N93A, I94A
B4: P2D8 (antibody, V domains shown)
VH: B1 VH
VL: B2 VL with Q88E, D91A, S92D, N93T, I94Y
notes: also called matured Ig P2D8
B5: P1H8 (antibody, V domains shown)
VH: B1 VH
VL: B2 VL with D91A, S92D, N93S, I94F
notes: also called matured Ig P1H8
B6: P1D9 (antibody, V domains shown)
VH: B1 VH
VL: B2 VL with Q88Y, S92N, N93A, I94Y
notes: also called matured Ig P1D9
B7: Fab clone 2H (Fab, V domains shown)
VH: B1 VH
VL: B2 VL
B8: Fab clone 1H (Fab, V domains shown)
VH: EVQLVQSGAEVKKPGASVKVSCKASGYTFTSYYMHWVRQAPGQGLEWMGLVDPEDGETIYAEKFQGRVTITADTSTDTAYMELSSLRSEDTAVYYCARVEWVAGTEGWGYYFDYWGQGTLVTVSS
VL: NFMLTQPHSVSESPGKTVTIPCTASSGSIANNFVQWYQQRPGSAPTTVIYEDSQRPSGVPDRVSGSIDSSSNSASLTISGLKTEDEADYYCQSYDSANDRVTFGGGTKLIVLG
B9: IgG1 1H (antibody, V domains shown)
VH: B8 VH
VL: B8 VL

These binders were tested against T1, mouse IL-1β (mouse, UniProt P10749 118-269) (assay: ProteOn bioanalyzer (BioRad); end of the range tied to P2D7 by Table 1).
T1 construct: also called murine IL-1β
Protocol: (§1) Matured clones (except P1E8) were tested for affinity towards mouse and human IL-1β using the ProteOn bioanalyzer (BioRad, Hercules, USA).

| fold higher affinity compared to IgG 2H [fold] | Binder |
| --- | --- |
| 3 to 13 | B1 |

The binders below were run against T1, mouse IL-1β (assay: direct ELISA, OD 460 nm against IgG 2H concentration).

| EC50 (read off the curve) [nM] | Binder |
| --- | --- |
| ~0.3 | B2 |

These binders were tested against T1, mouse IL-1β (assay: cell-based or functional assay).

| EC50, inhibition of mouse IL-1β-induced IL-6 secretion by MRC5 cells [pM] | Binder |
| --- | --- |
| 479 | B3 |
| 158 | B1 |
| 197 | B4 |
| 623 | B5 |
| 241 | B6 |
| 1250 | B2 |

These binders were tested against T1, mouse IL-1β (assay: ProteOn bioanalyzer (BioRad); end of the range tied to P1H8 by Table 1).
Protocol: as §1

| fold higher affinity compared to IgG 2H [fold] | Binder |
| --- | --- |
| 3 to 13 | B5 |

What follows are binders tested against T2, human IL-1β (human, UniProt P01584 117-269) (assay: cell-based or functional assay).

| IC50 (concentration inhibiting 50% of IL-1β activity), HEK-Blue IL-1β cells, SEAP reporter [nM] | inhibition potency (EC50), human IL-1β induced IL-6 production in MRC5 cells [nM] | potency (EC50), neutralization in HEK-Blue cells stimulated with 4 pM human IL-1β [nM] | Binder |
| --- | --- | --- | --- |
| 0.21 |  |  | B7 |
|  | 0.35 | 0.17 | B2 |
| 1.31 |  |  | B8 |
|  | 3.92 | 2.6 | B9 |

Molecular target: T1, mouse IL-1β
Assay: cell-based or functional assay
Remark: another data set of the same source

| potency (EC50), neutralization in HEK-Blue cells stimulated with mouse IL-1β [nM] | Binder |
| --- | --- |
| 1.5 | B2 |
| 11.5 | B9 |

Molecular target: T2, human IL-1β
Assay: cell-based or functional assay
Remark: another data set of the same source

| EC50, inhibition of human IL-1β-induced IL-6 secretion by MRC5 cells [pM] | Binder |
| --- | --- |
| 45.3 | B3 |
| 6.53 | B1 |
| 11 | B4 |
| 21.5 | B5 |
| 20.7 | B6 |
| 148 | B2 |

These binders were tested against T2, human IL-1β (assay: ProteOn bioanalyzer (BioRad)).
Protocol: as §1

| Kd [pM] | Binder |
| --- | --- |
| 3.1 | B1 |
| 4.57 | B4 |
| 10.1 | B5 |
| 6.73 | B6 |
| 78.3 | B2 |

What follows are binders tested against T1, mouse IL-1β (assay: ProteOn bioanalyzer (BioRad)).
Protocol: as §1

| Kd [nM] | Binder |
| --- | --- |
| 0.0109 | B1 |
| 0.0166 | B4 |
| 0.0489 | B5 |
| 0.0236 | B6 |
| 0.142 | B2 |

From patent publication US20190144535A1 (AGENCY FOR SCIENCE TECHNOLOGY AND RESEARCH, published 2019)
